Test results reported in the DeepSol protein solubility set.

Assay: soluble on expression in E. coli; label from the status in PepcDB or PDB records

## MGSDKIHHHHHHMANQVDIMKDEVAKMTLDFTEPQEILLEISPSLQKSAWQESQVYATPSSRWCAYTNQICLYAFLNWIKTESVSKASVWYSSPGIPAFWEFVNGTAILLEEKRVVLIPSEAIDDSELEVPQEWVDIPSWVADYYLAVQVTPDGEWVRIWGYITHQELKSLAHYDQVDRTYCIDARYLIKDLNAFWITYQFCIKEEMKAAIAPLPELSTAQAENMQQLLSDSSVTFVRLAVPFTTWAALLDNEQWRQCLYEQHQRCLRRAVPTQFSQVQVNLSRWLLQIYDASWQAIETFFEPNTSSLAFNFRSSSGLNAAAIKRAKLIDLGMQIEAQKVILLVALMPEVNQQVSIRVQLHPACNQPYLPANIKLVLLSEQGEILQEVQARVQDMYVQLKLFDGEVGERFSIQVTLDSCQITENFVI
  soluble on expression in E. coli: not soluble

## MGCAGSTQSQADGSVKKIRKPKPWKHTQPITKAELMKLREEFWDTAPHYGGRKEIWDALRAAAEADISLAQAIVDSAGVIVQNTDLTVCYDERGAKYELPKYVLSEPTNLEEEN
  soluble on expression in E. coli: not soluble

## ISDVKFTVRGNITYSKNEIIERDEENNVYAYQMKKGYRVNQNRGLIALGLFKDYDDIRNSPTQKYGPVMPGDIKYKDVNGDGVVNDGDIVAIGSTSKPNLIYGLGLSATWKGLDVSLHFQGAGKSQFFTYGKCIWAFTEGQWGNILKGTLDNRWVDAETAQKLGIPANENPNASYPRLSYTDNGNGNTTIYEYKNNYRNSTYWLRNGSYVRLKTIDVGYTLPKKIVNKIHFNNVRIFMTGTNLLTWSSFKLWDPEMGASRGEQYPLAKSITLGLSVNL
  soluble on expression in E. coli: not soluble

## GAGTSTPTTGNQNMSGNSGSIVQNFYMQQYQNSIDADLGDNVISPEGQGSNTSSSTSSSQSSGLGGWFSSLLNLGTKLLADKKTEETTNIEDRIETTVVGVTIINSQGSVGTTYCYSKPDGRPPSTVSDPVTRLGPTLSRHYTFKVGEWPHSQSHGHAWICPLPGDKLKKMGSFHEVVKAHHLVKNGWDVVVQVNASFAHSGALCVAAVPEYEHTHEKALKWSELEEPAYTYQQLSVFPHQLLNLRTNSSVHLVMPYIGPGPTTNSALHNPWTIVVLILSELTGPGQTVPVTMSVAPIDAMVNGPLPNPEAPIRVVSVPESDSFMSSVPDNSTPLYPKVVVPPRQVPGRFTNFIDVAKQTYSFCSISGKPYFEVTNTSGDEPLFQMDVSLSAAELHGTYVASLSSFFAQYRGSLNFNFIFTGAAATKAKFLVAFVPPHSAAPKTRDEAMACIHAVWDVGLNSAFSFNVPYSSPADFMAVYSAEATVVNVSGWLQVYALTALTSTDIAVNSKGRVLVAVSAGPDFSLRHPVDLPDKQVTNVGEDGEPGETEPRYALSPVDMHVHTDVSFLLDRFFDVETLELSNLTGSPNTHVLNPFGSTAQLAWARLLNTCTYFFSDLELSIQFKFTTTPSSVGEGFVWVKWFPVGAPTKTTDAWQLEGGGNSVRIQQLAVAGMSPTVVFKIAGSRSQACGFSVPYTSMWRVVPVFYNGWGAPTKEKATYNWLPGAHFGSILLTSDAHDKGGCYLRYRFPRASMYCPRPIAPAFTRPADKTRHKFPTNINKQCTNYSLLKLAGDVESNPG
  soluble on expression in E. coli: soluble

## MQSVNRKSNKGATANIDAQEPFSVLLMGIDTGDLGRTEQGRSDTTMVVTINPKENKSTMISLDRDILTDIVGNDTQDKLNHAYAFGGAEMAINTVQELLDIPIHHYVSINMKGLKDLIDAVGGIEVDNTIGEFTLDGITVPAGKIKLDGTTGLAYARMRHEDPEGDVGRQRRQREVVEKIVRKVMSFDGVSKYRKILDAVEANVKTDLTWDDMMDIQSKYLSAFKTIDSEQLQGYSATIDDIYYQVLDPNSLYKTQTTLRKQLGLKEHASEREKDLAFYNQFSYAVTDTALIGESGDSSANSSTSSSSTADTTAGQTEYNGNTQQAAEGTYDPNTYVDPNAYTDPNAYADPNTYVDPNAPQYLEHHHHHH
  soluble on expression in E. coli: soluble

## MRRLLLTLILAATLLGCSQAPQEKLKVGILPIEDSLPIVVADEQGFFKKHGLDVEVIQFSSAVERDAALTAGEVDAVITDPLAVILLRDKGYDVRIASLCLGKTPKEGVFAILAAPNSDIDSVEDLDGKEIAVSLNTIIEYALDVMLSEYGLNYTKISIPKIPIRMQALLNGNVETAVLPEPLASYAVSKGAKLILSDAMLNESITQTVIVFRGDVDDEKVQKFLEAYREAVREINANKEKYREKFIEIARVPENIAGSYPIPDYPEPQQLPKEYYDRYLEWAMQRGLIEKPVPYEEAIR
  soluble on expression in E. coli: not soluble

## MGSDKIHHHHHHMMGKTEYLDYYSGKRVLVTGGAGAVGSNLVRRLLDLGAFVIVIDNLSSGYTWLLPQDAPNLLFIEGDITNDVDLKRVFNEEPEIIFHLAAFFANQNSVDYPEKDLWVNGFGTLKLLEYTRIYGKVERFVYASSGCSIYPSDAPMPFKEDLPISSWMSTPYQITKALGELYCNYFYKMYDIPITKARFFNSFGPGEVPGQYRNVIPNFIYWAMLGKPLPITGTGEETRDFTYVGDIVDGLLRMGYYREAIGEAFNLAAGREVKIKYLAEKVNELTGNTAGIVFKPRRKWDTKPRMLASNEKAKKVLGFNPDPDFDGRLAETVEWFKQNWELIKKSAEFGPGVSSAVR
  soluble on expression in E. coli: not soluble

## MIREDEVRKLVGEMREPFLQRPLGELDAVKEIKIKPEKRHISVKVALAKTGTAEQMQIQQEIVNVLKGAGAETVGLRFEELPEETVAKFRAPSAEKKTLLNMDNPPVFLAVASGKGGVGKSTVSVNLAISLARLGKKVGLIDADIYGFSVPDMMGITVRPTIEGEKLLPVERFGVKVMSMGFFVEENAPVVWRGPMLGKMLNNFFHEVEWGEVDYIVLDLPPGTGDVALDVHTMLPSCKEIIVSTPHPTAAFVAARAGSMAIKTDHEVVGVIENMAYYESAKTGEREYVFGKGGGDKLAEELNVPLLGRIPLKQPDWDKDQFAPSVYDENHPIGEIYQDIAKKIDAKMSVQVLEHHHHHH
  soluble on expression in E. coli: soluble

## MSDSNTPNPPGTEERLVQQLDSYFSNTATGNETGEASAPAAPNNAAGTSDQDRPPNLAPILMLSYLNHCMSKKSFTPEDIQKSVWEQKSKKLSQEDWEFCKYFISSKELLLQLAPGKKRKTQAQALIELILKKFPGVGVEMLTRLLDPSESAYIIYDVIEQVKCEPKCDAESIKQEEFMYSQKINKKIRENNKCFKFSMVFERLRNGSSLPEEKPFAPLEFRTITSEYSNIYTQMVKATTYVELMDVMSKLKTTRLSVNELYFSAKHMQNPEKDTQDEFWEAESEKVLELQPLMIDPQLESTSRQRLKILQELALQQKMLKEVDEIISMSFELVTKSLSTGNPHNPADVQSLMINSNAPSIPDQRKNDWMEYYNLNPLGQYPISSHFPRSDRIGPKLPAVIQKISIRYCLSKEIEVIETIDEWKCREFCTYDHNLKDFRRHKCEICEVEVQECDLSLRQTKWCSHIEDQVLLMYNRVNGRLEQYVFSFETKGFKEVYCSCIEVTYRGKNGPEEPVLLTNGSEHVVIKEADPGVVKLQLVGENHVEIPAVPVQQLSAEEIEMQDAYDSSKSESESEHESEQISYNKTFISTLPMFKVRHCPLSRKDVLYVRSNNLGQYEKYDYHPTYHRFEPFKCSKCKDATSEDHLVPKYAEHCPETNEFVIHTENLFTERMEQYIYDSMTQGFRQVYYPQFLYDPSKDHTSNVFVTVNYLSTVITRDKDGRFKKEKFCDNLKKFVAIPEVEVNTFTVQELEKKKNKRRVDSDSDSFEHIEIPDMVSASP
  soluble on expression in E. coli: not soluble

## MITLTKKQMEEMLAHARQALPNEACGLLGGRRDGDDRWVERVYPLNNLDQSPEHFSMDPREQLTAVKDMRKNGWVMLGNFHSHPATPARPSAEDKRLAFDPSLSYLIISLAEPQKPVCKSFLIKKDGVDEEEIILKEELEHHHHHH
  soluble on expression in E. coli: soluble

## MSVKTWRKIAIDIIRDFDHNIMPLFGNPKASETISISPSGDETKVVDKVAENIIISKFKDLGVNVVSEEIGRIDQGSDYTVVVDPLDGSYNFINGIPFFAVSVAIFHEKDPIYAFIYEPIVERLYEGIPGKGSYLNGEKIKVRELAEKPSISFYTKGKGTKIIDKVKRTRTLGAIALELAYLARGALDAVVDIRNYLRPTDIAAGVVIAREAGAIVKDLDGKDVEITFSATEKVNIIAANNEELLETILRSIEK
  soluble on expression in E. coli: soluble

## MSELLQYSRIKYECTCGKFRTLPDLVFCRYCFKIKCDDCSLGEVDNIFCPRCLEPSSVPEARLKKHKCASCNDCPKCANVLSARTENDNVYLVCQYCRWSSREANQEDQENTKSWPTKENPLVNQLGEVTAYMKRLELIENAPKDLKKGKSGKAWTAFHLKDKFGFQQMVDKRKKALAPEMNPVDAHAPTEAPTLEDEIKERTDDLRTLDQIIMQPLINISEPLLPVQVPLAGRVQVRCDECERTLIKRDFGVTTFKFKISSFARQFVPDIRMSRPVDDLKVGETSHVFLSITNLSSSAMDLTIAPQSGNGFIQCSSDPIQLLLPSSRASDTAAPGVHADQSDVIVFRQHNRVGLRLDVIPTEMDLSSPCLNLLITYCQDGSFRLSSASDKILKPEETCPDPILSANLKVDLR
  soluble on expression in E. coli: not soluble

## DLLSWFKGNDRPPAPAGKALEFSKPAAWQNNLPLTPADKVSGYNNFYEFGLDKADPAANAGSLKTDPWTLKISGEVAKPLTLDHDDLTRRFPLEERIYRMRCVEAWSMVVPWIGFPLHKLLALAEPTSNAKYVAFETIYAPEQMPGQQDRFIGGGLKYPYVEGLRLDEAMHPLTLMTVGVYGKALPPQNGAPVRLIVPWKYGFKGIKSIVSIKLTRERPPTTWNLAAPDEYGFYANVNPYVDHPRWSQATERFIGSGGILDVQRQPTLLFNGYADQVASLYRGLDLRENFLEHHHHHH
  soluble on expression in E. coli: soluble

## MGSDKIHHHHHHMVKLKPKGPFTRIPRATTIFGAISNAIRLLYGRKEVEKFIAGFINDDAKITSAFPYDGETYFLPKPLSVDLVVKTLFETKKEDVKKVKKKDYIPLESFEKALRLEEFEVKELPYKVIELPKVSLDRVSNDSSLYFWDLVTFKENSGLYFLYDGSNKLFEKYIVPAMRLLEDQGIGGKGTWGYGLFEVEIEELEIEEPRENSYVTLSPFVPENETSLILWKIVKLGGWSQGKRRPKIPMVVEGSLSREDRGKMITLDLSLSYPVYVYARSFLVRASLPEEAVGHV
  soluble on expression in E. coli: not soluble

## MGSDKIHHHHHHMYHEFTPCAALVPFIDKFWVFKGFTDIGTRFKILADGCTDFIFSIGNMTVPTDEHSMIMQPYRSFFVGPMRSYSNLTATTDSLHMLGVRFQPCGLAAFTNEPLGQFADLRIQSSDINLLFDNSFAEMLCEQPDDSVRIRIIEGYLIRLLTQSIQVDRQIIYATSFIKQSYGQLPVQNLIDKICICQRHFQRKFKDATGYTPKEFSRIIKFQYAIEVLRNAPHTDLSSIALDCGYYDHSHFIKEFKRLAGDVPSYFLTLPNPADEPLTYI
  soluble on expression in E. coli: not soluble

## MGSDKIHHHHHHMGKFLKKHYIMAPGPTPVPNDILTEGAKETIHHRTPQFVSIMEETLESAKYIFQTKHNVYAFASTGTGAMEAAVANLVSPGDKVIVVVAGKFGERWRELCQAYGADIVEIALEWGDAVTPEQIEEALNKNPDAKVVFTTYSETSTGTVIDLEGIARVTKEKDVVLVTDAVSALGAEPLKMDEWGVDLVVTGSQKGLMLPPGLALISLNDKAWGLVEKSRSPRYYFDLRAYRKSYPDNPYTPAVNMIYMLRKALQMIKEEGIENVWERHRILGDATRAAVKALGLELLSKRPGNVVTAVKVPEGIDGKQIPKIMRDKYGVTIAGGQAKLKGKIFRIAHLGYMSPFDTITAISALELTLKELGYEFELGVGVKAAEAVFAKEFIGE
  soluble on expression in E. coli: not soluble

## MLMRPLDLTEKRGKKVTIYFEGKELEAYEGEKLPVALLANEIYWLTTSNEGRKRGAFTFGPVPMTVNGVKGLEARRIKVKDGMKIERQGYYDFHEEPVVEPGEIERVVVDVAIIGGGPAGIGAALELQQYLTVALIEERGWLGGDMWLKGIKQEGFNKDSRKVVEELVGKLNENTKIYLETSALGVFDKGEYFLVPVVRGDKLIEILAKRVVLATGAIDSTMLFENNDMPGVFRRDFALEVMNVWEVAPGRKVAVTGSKADEVIQELERWGIDYVHIPNVKRVEGNEKVERVIDMNNHEYKVDALIFADGRRPDINPITQAGGKLRFRRGYYSPVLDEYHRIKDGIYVAGSAVSIKPHYANYLEGKLVGAYILKEFGYDAQPCIYEEKLREYEPESLSIPRIPLDKFNLEDVQICGCDVSLKKVDEVIRKGITDLQIIKRLTHLAMGFCQGRYCLFNGAVVVSQRTGKKLSEIDLPVARSPIKNVKMGILARR
  soluble on expression in E. coli: soluble
